We go through three molecules from article PMC4785402, “Structure of ThiM from Vitamin B1 biosynthetic pathway of Staphylococcus aureus – Insights into a novel pro-drug approach addressing MRSA infections” (Scientific Reports, 2016).

One data set deals with Cc1nccn1CCO. In words: purified protein. Conditions: 4 mM ATP, 10 mM MgCl2, 50 mM potassium phosphate pH 7.5, 37 °C.
A further data set concerns the target T1, SaThiM (Staphylococcus aureus, UniProt Q6GEY3).
T1 construct: gene thiM; homotrimer, active sites between two monomers
T1 sequence (Q6GEY3 1-263): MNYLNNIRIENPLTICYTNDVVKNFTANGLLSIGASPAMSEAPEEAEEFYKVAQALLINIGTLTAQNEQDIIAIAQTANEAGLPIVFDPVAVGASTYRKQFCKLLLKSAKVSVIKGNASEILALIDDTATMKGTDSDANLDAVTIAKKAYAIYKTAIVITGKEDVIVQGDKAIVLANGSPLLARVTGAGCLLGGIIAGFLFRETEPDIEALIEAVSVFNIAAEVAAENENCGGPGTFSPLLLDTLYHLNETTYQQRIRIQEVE
In words: X-ray crystal structure of soaked complex, […] Å. In kind it is binding. Conditions: Mg2+ in four of the six active sites; active site at monomer interface.

Substrate in the data set “purified protein”: Cc1nn(C)c(C)c1CCO
Description: purified protein. Conditions: 4 mM ATP, 10 mM MgCl2, 50 mM potassium phosphate pH 7.5, 37 °C.

For the molecule “SaThiM (Staphylococcus aureus subsp. aureus MRSA252)”, in the data set on Cc1nccn1CCO, the Michaelis-Menten constant (Km) worked out at 831 ± 169 µM and the kcat amounted to 3.63 ± 0.05 s⁻¹.
Take `Cc1ncsc1CCO` [THZ, 5-(hydroxyethyl)-4-methylthiazole]: the “X-ray crystal structure of soaked complex, 1.90 Å” value at SaThiM was “THZ identically occupies all six active sites of the two trimers in the asymmetric unit”.

B1: SaThiM (Staphylococcus aureus subsp. aureus MRSA252) (protein)
chain: T1 sequence (Q6GEY3 1-263)
Consider B1, for which, in the data set “purified protein”, the Michaelis constant (Km) was 834 ± 147 µM and the catalytic constant (kcat) amounted to 3.58 ± 0.133 s⁻¹.
